The source of these data is the supplement of paper PMC5998384.

This series has as its system HeLa Kyoto. The experiment in a line: melting temperature (median over replicates), in situ; higher = more thermally stable.
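Also: HeLa Kyoto cells synchronized by double thymidine or nocodazole block, proteins quantified by TMT10plex mass spectrometry, three independent biological replicates.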

Turning to “MGDMANSSIEFHPKPQQQRDVPQAGGFGCTLAELRTLMELRGAEALQKIEEAYGDVSGLCRRLKTSPTEGLADNTNDLEKRRQIYGQNFIPPKQPKTFLQLVWEALQDVTLIILEVAAIVSLGLSFYAPPGEESEACGNVSGGAEDEGEAEAGWIEGAAILLSVICVVLVTAFNDWSKEKQFRGLQSRIEQEQKFTVIRNGQLLQVPVAALVVGDIAQVKYGDLLPADGVLIQANDLKIDESSLTGESDHVRKSADKDPMLLSGTHVMEGSGRMVVTAVGVNSQTGIIFTLLGAGGEEEEKKDKKGKQQDGAMESSQTKAKKQDGAVAMEMQPLKSAEGGEMEEREKKKANAPKKEKSVLQGKLTKLAVQIGKAGLVMSAITVIILVLYFVIETFVVEGRTWLAECTPVYVQYFVKFFIIGVTVLVVAVPEGLPLAVTISLAYSVKKMMKDNNLVRHLDACETMGNATAICSDKTGTLTTNRMTVVQSYLGDTHYKEIPAPSALTPKILDLLVHAISINSAYTTKILPPEKEGALPRQVGNKTECALLGFVLDLKRDFQPVREQIPEDKLYKVYTFNSVRKSMSTVIRMPDGGFRLFSKGASEILLKKCTNILNSNGELRGFRPRDRDDMVRKIIEPMACDGLRTICIAYRDFSAGQEPDWDNENEVVGDLTCIAVVGIEDPVRPEVPEAIRKCQRAGITVRMVTGDNINTARAIAAKCGIIQPGEDFLCLEGKEFNRRIRNEKGEIEQERLDKVWPKLRVLARSSPTDKHTLVKGIIDSTTGEQRQVVAVTGDGTNDGPALKKADVGFAMGIAGTDVAKEASDIILTDDNFTSIVKAVMWGRNVYDSISKFLQFQLTVNVVAVIVAFTGACITQDSPLKAVQMLWVNLIMDTFASLALATEPPTESLLLRKPYGRDKPLISRTMMKNILGHAVYQLAIIFTLLFVGELFFDIDSGRNAPLHSPPSEHYTIIFNTFVMMQLFNEINARKIHGERNVFDGIFSNPIFCTIVLGTFGIQIVIVQFGGKPFSCSPLSTEQWLWCLFVGVGELVWGQVIATIPTSQLKCLKEAGHGPGKDEMTDEELAEGEEEIDHAERELRRGQILWFRGLNRIQTQIRVVKAFRSSLYEGLEKPESKTSIHNFMATPEFLINDYTHNIPLIDDTDVDENEERLRAPPPPSPNQNNNAIDSGIYLTTHVTKSATSSVFSSSPGSPLHSVETSL [ATP2B3]”, the melting temperature (cell cycle stage: G1/S) is 54.2 °C.

Take “MGKEKTHINIVVIGHVDSGKSTTTGHLIYKCGGIDKRTIEKFEKEAAEMGKGSFKYAWVLDKLKAERERGITIDISLWKFETSKYYVTIIDAPGHRDFIKNMITGTSQADCAVLIVAAGVGEFEAGISKNGQTREHALLAYTLGVKQLIVGVNKMDSTEPPYSQKRYEEIVKEVSTYIKKIGYNPDTVAFVPISGWNGDNMLEPSANMPWFKGWKVTRKDGNASGTTLLEALDCILPPTRPTDKPLRLPLQDVYKIGGIGTVPVGRVETGVLKPGMVVTFAPVNVTTEVKSVEMHHEALSEALPGDNVGFNVKNVSVKDVRRGNVAGDSKNDPPMEAAGFTAQVIILNHPGQISAGYAPVLDCHTAHIACKFAELKEKIDRRSGKKLEDGPKFLKSGDAAIVDMVPGKPMCVESFSDYPPLGRFAVRDMRQTVAVGVIKAVDKKAAGAGKVTKSAQKAQKAK [EEF1A1]”: the melting temperature is 52.4 °C (cell cycle stage: G1/S) and 52.4 °C (cell cycle stage: mitosis).

On to “MGLELFLDLVSQPSRAVYIFAKKNGIPLELRTVDLVKGQHKSKEFLQINSLGKLPTLKDGDFILTESSAILIYLSCKYQTPDHWYPSDLQARARVHEYLGWHADCIRGTFGIPLWVQVLGPLIGVQVPEEKVERNRTAMDQALQWLEDKFLGDRPFLAGQQVTLADLMALEELMQPVALGYELFEGRPRLAAWRGRVEAFLGAELCQEAHSIILSILEQAAKKTLPTPSPEAYQAMLLRIARIP [GSTT2B]”, for which the melting temperature is, setting by setting: (cell cycle stage: G1/S) 54.9 °C; (cell cycle stage: mitosis) 55.1 °C. “MGSRWSSEEERQPLLGPGLGPGLGASWRSREAAAAALPAAVPGPGRVYGRRWLVLLLFSLLAFVQGLVWNTWGPIQNSARQAYGFSSWDIALLVLWGPIGFLPCFAFMWLLDKRGLRITVLLTSFLMVLGTGLRCIPISDLILKRRLIHGGQMLNGLAGPTVMNAAPFLSTTWFSADERATATAIASMLSYLGGACAFLVGPLVVPAPNGTSPLLAAESSRAHIKDRIEAVLYAEFGVVCLIFSATLAYFPPRPPLPPSVAAASQRLSYRRSVCRLLSNFRFLMIALAYAIPLGVFAGWSGVLDLILTPAHVSQVDAGWIGFWSIVGGCVVGIAMARFADFIRGMLKLILLLLFSGATLSSTWFTLTCLNSITHLPLTTVTLYASCILLGVFLNSSVPIFFELFVETVYPVPEGITCGVVTFLSNMFMGVLLFFLTFYHTELSWFNWCLPGSCLLSLLLILCFRESYDRLYLDVVVSV [DIRC2]” had a melting temperature (cell cycle stage: G1/S) of 54.8 °C.

As for “MIEAEEQQPCKTDFYSELPKVELHAHLNGSISSHTMKKLIAQKPDLKIHDQMTVIDKGKKRTLEECFQMFQTIHQLTSSPEDILMVTKDVIKEFADDGVKYLELRSTPRRENATGMTKKTYVESILEGIKQSKQENLDIDVRYLIAVDRRGGPLVAKETVKLAEEFFLSTEGTVLGLDLSGDPTVGQAKDFLEPLLEAKKAGLKLALHLSEIPNQKKETQILLDLLPDRIGHGTFLNSGEGGSLDLVDFVRQHRIPLELCLTSNVKSQTVPSYDQHHFGFWYSIAHPSVICTDDKGVFATHLSQEYQLAAETFNLTQSQVWDLSYESINYIFASDSTRSELRKKWNHLKPRVLHI [ADAL]”, the melting temperature (cell cycle stage: G1/S) was 57.1 °C and the melting temperature (cell cycle stage: mitosis) was 57.2 °C. Turning to “MKKTPVFLESLVTNMLRLRAICPFSWRVFQFRPISCEPLIIQMNKCTDEEQMFGFIERNKAILSEKQVGCAFDMLWKLQKQKTSLLKNAEYVRDHPQFLTLHNLATNKFKLMNDDTLVNVLYVTQQFAGEAHDPLVEALVTEAWRRLERFDIKLLSEFSSCLADQHLYFSPLMGKIADIVHRNLETTQDLSSLSVLMVNISSLISRHFQQQLVNKTELLFDTIDSSEVNVAKSIAKFLRNVRYRYQPLLERCNNVFLSNVDHLDLDSISKILSVYKFLQFNSFEFIIMAKKKLTEMIPLCNHPASFVKLFVALGPIAGPEEKKQLKSTMLLMSEDLTGEQALAVLGAMGDMESRNSCLIKRVTSVLHKHLDGYKPLELLKITQELTFLHFQRKEFFAKLRELLLSYLKNSFIPTEVSVLVRAISLLPSPHLDEVGISRIEAVLPQCDLNNLSSFATSVLRWIQHDHMYLDNMTAKQLKLLQKLDHYGRQRLQHSNSLDLLRKELKSLKGNTFPESLLEEMIATLQHFMDDINYINVGEIASFISSTDYLSTLLLDRIASVAVQQIEKIHPFTIPAIIRPFSVLNYDPPQRDEFLGTCVQHLNSYLGILDPFILVFLGFSLATLEYFPEDLLKAIFNIKFLARLDSQLEILSPSRSARVQFHLMELNRSVCLECPEFQIPWFHDRFCQQYNKGIGGMDGTQQQIFKMLAEVLGGINCVKASVLTPYYHKVDFECILDKRKKPLPYGSHNIALGQLPEMPWESNIEIVGSRLPPGAERIALEFLDSKALCRNIPHMKGKSAMKKRHLEILGYRVIQISQFEWNSMALSTKDARMDYLRECIFGEVKSCL [FASTKD1]”, where the note is “cell cycle stage: mitosis”, the melting temperature was found to be 49.9 °C. Where the note is “cell cycle stage: mitosis”, “MKPNFSLRLRIFNLNCWGIPYLSKHRADRMRRLGDFLNQESFDLALLEEVWSEQDFQYLRQKLSPTYPAAHHFRSGIIGSGLCVFSKHPIQELTQHIYTLNGYPYMIHHGDWFSGKAVGLLVLHLSGMVLNAYVTHLHAEYNRQKDIYLAHRVAQAWELAQFIHHTSKKADVVLLCGDLNMHPEDLGCCLLKEWTGLHDAYLETRDFKGSEEGNTMVPKNCYVSQQELKPFPFGVRIDYVLYKAVSGFYISCKSFETTTGFDPHRGTPLSDHEALMATLFVRHSPPQQNPSSTHGPAERSPLMCVLKEAWTELGLGMAQARWWATFASYVIGLGLLLLALLCVLAAGGGAGEAAILLWTPSVGLVLWAGAFYLFHVQEVNGLYRAQAELQHVLGRAREAQDLGPEPQPALLLGQQEGDRTKEQ [SMPD2]” gave a melting temperature of 55.7 °C.

Turning to “MLILTKTAGVFFKPSKRKVYEFLRSFNFHPGTLFLHKIVLGIETSCDDTAAAVVDETGNVLGEAIHSQTEVHLKTGGIVPPAAQQLHRENIQRIVQEALSASGVSPSDLSAIATTIKPGLALSLGVGLSFSLQLVGQLKKPFIPIHHMEAHALTIRLTNKVEFPFLVLLISGGHCLLALVQGVSDFLLLGKSLDIAPGDMLDKVARRLSLIKHPECSTMSGGKAIEHLAKQGNRFHFDIKPPLHHAKNCDFSFTGLQHVTDKIIMKKEKEEGIEKGQILSSAADIAATVQHTMACHLVKRTHRAILFCKQRDLLPQNNAVLVASGGVASNFYIRRALEILTNATQCTLLCPPPRLCTDNGIMIAWNGIERLRAGLGILHDIEGIRYEPKCPLGVDISKEVGEASIKVPQLKMEI [OSGEPL1]”, the melting temperature (cell cycle stage: G1/S) stood at 53.6 °C and the melting temperature (cell cycle stage: mitosis) was 51.1 °C.
